Data set [1] relates to D412A-68 D412A (Adeno-associated virus 2). The experiment in a line: EMSA. Particulars: apparent Kd, same as wt; 40 mM KCl, 10 mM HEPES pH 7.5, poly dIdC, 25 C.
Data set [2] concerns Rep68H6 (wt Rep68) (Adeno-associated virus 2). The data set is described as follows: EMSA. Particulars: apparent Kd; 40 mM KCl, 10 mM HEPES pH 7.5, poly dIdC, 25 C. (In EMSA bound probe runs differently from free probe, usually more slowly.)

For the substance “AAV terminal repeat hairpin with double-stranded trs (32P-TR)”, the Kd in data set [1] and in data set [2] was 3 nM each time.

Source of the values: patent US6627617.
